Experimental data reported in article PMC10786891, “Massively parallel profiling of RNA-targeting CRISPR-Cas13d”.

T1: EsCas13d, nuclease-dead (Eubacterium siraeum, UniProt B0MS50, R295A;H300A;R849A;H854A)
T1 sequence: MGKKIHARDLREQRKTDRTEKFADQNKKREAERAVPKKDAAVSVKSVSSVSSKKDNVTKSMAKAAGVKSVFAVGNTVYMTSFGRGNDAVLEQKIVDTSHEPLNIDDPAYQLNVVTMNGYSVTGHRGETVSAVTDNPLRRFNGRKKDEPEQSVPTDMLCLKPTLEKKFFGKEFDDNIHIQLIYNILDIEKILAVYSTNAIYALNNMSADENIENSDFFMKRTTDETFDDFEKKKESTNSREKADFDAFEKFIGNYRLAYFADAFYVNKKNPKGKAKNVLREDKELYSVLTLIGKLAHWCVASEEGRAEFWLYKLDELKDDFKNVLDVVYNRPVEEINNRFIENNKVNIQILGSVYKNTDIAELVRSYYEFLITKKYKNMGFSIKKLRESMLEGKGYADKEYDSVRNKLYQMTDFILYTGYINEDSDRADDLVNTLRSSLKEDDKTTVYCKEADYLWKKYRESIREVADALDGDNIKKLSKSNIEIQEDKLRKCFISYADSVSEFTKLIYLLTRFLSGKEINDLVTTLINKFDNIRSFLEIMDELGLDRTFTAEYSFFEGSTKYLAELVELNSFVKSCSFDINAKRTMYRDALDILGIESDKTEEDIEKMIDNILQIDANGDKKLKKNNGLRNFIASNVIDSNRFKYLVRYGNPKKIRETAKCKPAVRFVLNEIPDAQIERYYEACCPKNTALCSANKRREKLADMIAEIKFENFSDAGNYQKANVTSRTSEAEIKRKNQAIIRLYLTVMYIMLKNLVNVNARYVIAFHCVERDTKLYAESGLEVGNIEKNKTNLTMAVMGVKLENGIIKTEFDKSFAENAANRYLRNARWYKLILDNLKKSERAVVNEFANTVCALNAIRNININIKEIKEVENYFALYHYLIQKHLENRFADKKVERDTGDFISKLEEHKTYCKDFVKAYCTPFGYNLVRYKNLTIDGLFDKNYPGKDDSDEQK


target: T1, EsCas13d, nuclease-dead; experiment: crRNA (strand 1, pre-loaded); Mg2+; 40 mM Tris-HCl pH 7.5, 150 mM NaCl, 6 mM MgCl2, 1 mM DTT, 0.1% Tween-20, 0.2 mg/ml BSA; 25 C; 10 min per concentration, then washed; details: tags: His6-TwinStrep-SUMO cleaved; N-terminal SNAP kept (SNAP-Surface 488); label: 3' end held by stalled T7 RNA polymerase

Binder	Kd [nM]
target 3 U2G,A5G (mixed) RNA 1: CACCCGUGCAAAAUUGCAGGGGUCUAAAACGACCUGAAUAUUUCAGAUCAAA RNA 2: GGGAAUGGAUCCACAUCUACGAAUUCGUUUUUGAUCUGAAAUAUUCGGGGCUGCAGAUCGGAAGAGCACACGU	2.54 ± 0.36
target 3 U2G,U8C (mixed) RNA 1: CACCCGUGCAAAAUUGCAGGGGUCUAAAACGACCUGAAUAUUUCAGAUCAAA RNA 2: GGGAAUGGAUCCACAUCUACGAAUUCGUUUUUGAUCUGAAAUACUCAGGGCUGCAGAUCGGAAGAGCACACGU	20.6 ± 2.2
target 3 A5C (mixed) RNA 1: CACCCGUGCAAAAUUGCAGGGGUCUAAAACGACCUGAAUAUUUCAGAUCAAA RNA 2: GGGAAUGGAUCCACAUCUACGAAUUCGUUUUUGAUCUGAAAUAUUCCGGUCUGCAGAUCGGAAGAGCACACGU	64.5 ± 11
target 3 insA 3' of 22,insC 3' of 19 (mixed) RNA 1: CACCCGUGCAAAAUUGCAGGGGUCUAAAACGACCUGAAUAUUUCAGAUCAAA RNA 2: GGGAAUGGAUCCACAUCUACGAAUUCGUUUAUUGCAUCUGAAAUAUUCAGGUCUGCAGAUCGGAAGAGCACACGU	91 ± 25.5
target 3 insA 3' of 8,insU 3' of 3 (mixed) RNA 1: CACCCGUGCAAAAUUGCAGGGGUCUAAAACGACCUGAAUAUUUCAGAUCAAA RNA 2: GGGAAUGGAUCCACAUCUACGAAUUCGUUUUUGAUCUGAAAUAUAUCAGGUUCUGCAGAUCGGAAGAGCACACGU	70 ± 20
target 3 insG 3' of 5,insA 3' of 3 (mixed) RNA 1: CACCCGUGCAAAAUUGCAGGGGUCUAAAACGACCUGAAUAUUUCAGAUCAAA RNA 2: GGGAAUGGAUCCACAUCUACGAAUUCGUUUUUGAUCUGAAAUAUUCAGGGAUCUGCAGAUCGGAAGAGCACACGU	17.2 ± 2.55
target 3 U7G,U22A (mixed) RNA 1: CACCCGUGCAAAAUUGCAGGGGUCUAAAACGACCUGAAUAUUUCAGAUCAAA RNA 2: GGGAAUGGAUCCACAUCUACGAAUUCGUUAUUGAUCUGAAAUAUGCAGGUCUGCAGAUCGGAAGAGCACACGU	41 ± 5.5
target 3 G4A,A18G (mixed) RNA 1: CACCCGUGCAAAAUUGCAGGGGUCUAAAACGACCUGAAUAUUUCAGAUCAAA RNA 2: GGGAAUGGAUCCACAUCUACGAAUUCGUUUUUGGUCUGAAAUAUUCAAGUCUGCAGAUCGGAAGAGCACACGU	13.7 ± 1.15
target 3 U2A,G4A (mixed) RNA 1: CACCCGUGCAAAAUUGCAGGGGUCUAAAACGACCUGAAUAUUUCAGAUCAAA RNA 2: GGGAAUGGAUCCACAUCUACGAAUUCGUUUUUGAUCUGAAAUAUUCAAGACUGCAGAUCGGAAGAGCACACGU	3.11 ± 0.33
target 3 C6A,U7G (mixed) RNA 1: CACCCGUGCAAAAUUGCAGGGGUCUAAAACGACCUGAAUAUUUCAGAUCAAA RNA 2: GGGAAUGGAUCCACAUCUACGAAUUCGUUUUUGAUCUGAAAUAUGAAGGUCUGCAGAUCGGAAGAGCACACGU	58 ± 6.5
target 3 U7G,A18G (mixed) RNA 1: CACCCGUGCAAAAUUGCAGGGGUCUAAAACGACCUGAAUAUUUCAGAUCAAA RNA 2: GGGAAUGGAUCCACAUCUACGAAUUCGUUUUUGGUCUGAAAUAUGCAGGUCUGCAGAUCGGAAGAGCACACGU	64 ± 22.5
target 3 insU 3' of 22,insU 3' of 5 (mixed) RNA 1: CACCCGUGCAAAAUUGCAGGGGUCUAAAACGACCUGAAUAUUUCAGAUCAAA RNA 2: GGGAAUGGAUCCACAUCUACGAAUUCGUUUUUUGAUCUGAAAUAUUCAUGGUCUGCAGAUCGGAAGAGCACACGU	6.45 ± 0.55
target 3 insA 3' of 22,insG 3' of 6 (mixed) RNA 1: CACCCGUGCAAAAUUGCAGGGGUCUAAAACGACCUGAAUAUUUCAGAUCAAA RNA 2: GGGAAUGGAUCCACAUCUACGAAUUCGUUUAUUGAUCUGAAAUAUUCGAGGUCUGCAGAUCGGAAGAGCACACGU	12.2 ± 1.3
target 3 insU 3' of 19,insU 3' of 3 (mixed) RNA 1: CACCCGUGCAAAAUUGCAGGGGUCUAAAACGACCUGAAUAUUUCAGAUCAAA RNA 2: GGGAAUGGAUCCACAUCUACGAAUUCGUUUUUGUAUCUGAAAUAUUCAGGUUCUGCAGAUCGGAAGAGCACACGU	105 ± 45
target 3 insA 3' of 21,insC 3' of 4 (mixed) RNA 1: CACCCGUGCAAAAUUGCAGGGGUCUAAAACGACCUGAAUAUUUCAGAUCAAA RNA 2: GGGAAUGGAUCCACAUCUACGAAUUCGUUUUAUGAUCUGAAAUAUUCAGCGUCUGCAGAUCGGAAGAGCACACGU	50.5 ± 15.5
target 3 C1U,U2G (mixed) RNA 1: CACCCGUGCAAAAUUGCAGGGGUCUAAAACGACCUGAAUAUUUCAGAUCAAA RNA 2: GGGAAUGGAUCCACAUCUACGAAUUCGUUUUUGAUCUGAAAUAUUCAGGGUUGCAGAUCGGAAGAGCACACGU	91 ± 20
target 3 insC 3' of 9,insC 3' of 4 (mixed) RNA 1: CACCCGUGCAAAAUUGCAGGGGUCUAAAACGACCUGAAUAUUUCAGAUCAAA RNA 2: GGGAAUGGAUCCACAUCUACGAAUUCGUUUUUGAUCUGAAAUACUUCAGCGUCUGCAGAUCGGAAGAGCACACGU	87.5 ± 28
target 3 A12C (mixed) RNA 1: CACCCGUGCAAAAUUGCAGGGGUCUAAAACGACCUGAAUAUUUCAGAUCAAA RNA 2: GGGAAUGGAUCCACAUCUACGAAUUCGUUUUUGAUCUGACAUAUUCAGGUCUGCAGAUCGGAAGAGCACACGU	53 ± 8.5
target 3 A5G,A13G (mixed) RNA 1: CACCCGUGCAAAAUUGCAGGGGUCUAAAACGACCUGAAUAUUUCAGAUCAAA RNA 2: GGGAAUGGAUCCACAUCUACGAAUUCGUUUUUGAUCUGGAAUAUUCGGGUCUGCAGAUCGGAAGAGCACACGU	~100
target 3 A12G,U22A (mixed) RNA 1: CACCCGUGCAAAAUUGCAGGGGUCUAAAACGACCUGAAUAUUUCAGAUCAAA RNA 2: GGGAAUGGAUCCACAUCUACGAAUUCGUUAUUGAUCUGAGAUAUUCAGGUCUGCAGAUCGGAAGAGCACACGU	40.5 ± 5.5
target 3 C1G,A5C (mixed) RNA 1: CACCCGUGCAAAAUUGCAGGGGUCUAAAACGACCUGAAUAUUUCAGAUCAAA RNA 2: GGGAAUGGAUCCACAUCUACGAAUUCGUUUUUGAUCUGAAAUAUUCCGGUGUGCAGAUCGGAAGAGCACACGU	83.5 ± 23
target 3 C1G,U7G (mixed) RNA 1: CACCCGUGCAAAAUUGCAGGGGUCUAAAACGACCUGAAUAUUUCAGAUCAAA RNA 2: GGGAAUGGAUCCACAUCUACGAAUUCGUUUUUGAUCUGAAAUAUGCAGGUGUGCAGAUCGGAAGAGCACACGU	28.9 ± 5.65
target 3 insC 3' of 4,insU 3' of 3 (mixed) RNA 1: CACCCGUGCAAAAUUGCAGGGGUCUAAAACGACCUGAAUAUUUCAGAUCAAA RNA 2: GGGAAUGGAUCCACAUCUACGAAUUCGUUUUUGAUCUGAAAUAUUCAGCGUUCUGCAGAUCGGAAGAGCACACGU	29.1 ± 3.6
target 3 C6U,A11U (mixed) RNA 1: CACCCGUGCAAAAUUGCAGGGGUCUAAAACGACCUGAAUAUUUCAGAUCAAA RNA 2: GGGAAUGGAUCCACAUCUACGAAUUCGUUUUUGAUCUGAAUUAUUUAGGUCUGCAGAUCGGAAGAGCACACGU	92 ± 24
target 3 U7G,U8A (mixed) RNA 1: CACCCGUGCAAAAUUGCAGGGGUCUAAAACGACCUGAAUAUUUCAGAUCAAA RNA 2: GGGAAUGGAUCCACAUCUACGAAUUCGUUUUUGAUCUGAAAUAAGCAGGUCUGCAGAUCGGAAGAGCACACGU	67 ± 12
target 1 A18C,U19G (mixed) RNA 1: CACCCGUGCAAAAAUGCAGGGGUCUAAAACUGAGCGGAUAACCUCUCUAUGG RNA 2: GGGAAUGGAUCCACAUCUACGAAUUCGUACCAGCGAGAGGUUAUCCGCUCACCGAGAUCGGAAGAGCACACGU	55 ± 14
target 1 insC 3' of 18,insG 3' of 1 (mixed) RNA 1: CACCCGUGCAAAAAUGCAGGGGUCUAAAACUGAGCGGAUAACCUCUCUAUGG RNA 2: GGGAAUGGAUCCACAUCUACGAAUUCGUACCAUACGAGAGGUUAUCCGCUCAGCCGAGAUCGGAAGAGCACACGU	34 ± 4
target 1 insU 3' of 20,insA 3' of 4 (mixed) RNA 1: CACCCGUGCAAAAAUGCAGGGGUCUAAAACUGAGCGGAUAACCUCUCUAUGG RNA 2: GGGAAUGGAUCCACAUCUACGAAUUCGUACCAUUAGAGAGGUUAUCCGCAUCACCGAGAUCGGAAGAGCACACGU	8.6 ± 0.7
